Experimental data as given in patent publication US20260092121A1 (TALEM THERAPEUTICS, published 2026).

Key:
human TrkB-ECD-GST = target: T1, human TrkB-ECD-GST (human, UniProt Q16620 32-430); assay: ELISA
T1 construct: in-house fusion, HEK293; also called hTrkB-ECD-GST; human TrkB-GST; not shown: glutathione S-transferase (GST) fusion part

mouse TrkB-ECD-GST = target: T2, mouse TrkB-ECD-GST (mouse, UniProt P15209 32-429); assay: ELISA
T2 construct: extracellular domain; in-house fusion, HEK293; also called mTrkB-ECD-GST; mTrkB (ELISA); not shown: glutathione S-transferase (GST) fusion part

| Binder | binding result (human TrkB-ECD-GST) | binding result (mouse TrkB-ECD-GST) |
| --- | --- | --- |
| anti-TrkB clone 3B06 (antibody, V domains shown, full-length IgG) VH: EVQLVQSGAEVKEPGASVKVSCKASGYTFTNYAMHWVRQAPGQRLEWMGWINPNTGGTNYAQKFQGRVTMTRDTSISTAYMELSSLRSDDTAVYYCARGGGGLVFWGQGTLVTVSS VL: DIVMTQTPLSLPVTLGQPASISCRSSQSLVDRDGNTYLNWFRQRPGQSPRRLIYKVSNRDSGVPGTFSGSGSGTDFTLKISRVEADDVGVYFCMQATHWPPTFGQGTKVEI | no binding (tested: up to 10 µg/mL) | no binding (tested: up to 10 µg/mL) |
| anti-TrkB clone 2E08 (antibody, V domains shown, full-length IgG) VH: QVQLVQSGAEVKKPGESLKISCTGSGYRFSHYWIGWVRQMPGKGLEWMGMIYPDDSDTRYSPSFQGQVTISADKSINTAYLQWTSLRASDSAIYYCATGVISGTDYWGQGTLVTVSS VL: SYVLTQPPSVSVSPGQTARITCSGDKLGDKYVSWYQLKPGQSPVVVIYQDNKRPSGIPERFSASNSENTGTLTISGTQAMDEADYYCQTWDSGTGVFGTGTKLTVL | no binding (tested: up to 10 µg/mL) | no binding (tested: up to 10 µg/mL) |
| anti-TrkB clone 2H05 (antibody, V domains shown, full-length IgG) VH: EVQLVESGAEVKKPGESLRISCKGSGYSFTNNWINWVRQMPGKGLEWMGRIDPDDSYTNYSPSFQGHVIFSADKSSNTVYLQWSSLEASDTAMYYCARRAQGGGGYDYWGQGTLVTVSS VL: QSVLTQPSSVSGAPGQRVTISCTGSSSNIGAGYGVHWYQQLPGTAPKLLIYDDINRPSGVPDRFSGSKSGTSASLAITGLRAEDEADYYCQSYDTSRGGLYVFGSGTKLTVL | no binding (tested: up to 10 µg/mL) | no binding (tested: up to 10 µg/mL) |
| anti-TrkB clone 3D03 (antibody, V domains shown, full-length IgG) VH: EVQLVQSGAEVKKPGESLKISCKGSGYSFTSYWIGWVRQMPGKGLEWMGIIYPGDSDTRYSPSFQGQVTISADKSISTAYLQWSSLKASDTAMYYCARLGGSLPIDYWGQGTLVTVSS VL: QSVLTQPPSVSVSPGQTASITCSGDKLGDKYVSWYQQKPGQSPVLVIYQDSKRPSGIPERFSGSNSGSTATLTISGTQALDEADYYCQAWDNNIGVFGGGTKLTVL | no binding (tested: up to 10 µg/mL) | no binding (tested: up to 10 µg/mL) |
